Earlier results, collected in article PMC3413316.

Experiments:
Protein C (Homo sapiens) = Protein C (Homo sapiens) (UniProt P04070)
[1] = molecular target: Activated protein C (Homo sapiens) (UniProt P04070)
Activated protein C (Homo sapiens), sequence (P04070 43-197, chain 1 of 2): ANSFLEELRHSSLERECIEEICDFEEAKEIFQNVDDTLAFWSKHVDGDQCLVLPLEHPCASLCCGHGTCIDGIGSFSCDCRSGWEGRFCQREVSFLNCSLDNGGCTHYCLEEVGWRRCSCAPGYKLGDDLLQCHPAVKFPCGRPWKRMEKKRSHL
Activated protein C (Homo sapiens), sequence (P04070 212-461, chain 2 of 2): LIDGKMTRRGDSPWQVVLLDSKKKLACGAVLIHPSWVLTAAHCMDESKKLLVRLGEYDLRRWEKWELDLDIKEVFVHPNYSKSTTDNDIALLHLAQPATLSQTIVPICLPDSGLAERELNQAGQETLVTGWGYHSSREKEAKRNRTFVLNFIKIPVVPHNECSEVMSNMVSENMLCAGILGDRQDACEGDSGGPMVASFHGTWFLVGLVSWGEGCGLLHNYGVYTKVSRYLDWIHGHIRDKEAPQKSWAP

EPCR, sequence (Q9UNN8 18-210): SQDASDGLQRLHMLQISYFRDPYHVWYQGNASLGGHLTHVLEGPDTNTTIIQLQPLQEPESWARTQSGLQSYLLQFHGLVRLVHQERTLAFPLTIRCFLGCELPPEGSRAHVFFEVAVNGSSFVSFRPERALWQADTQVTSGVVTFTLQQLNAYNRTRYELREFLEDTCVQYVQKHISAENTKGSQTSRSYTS
Protein C (Homo sapiens), sequence (P04070 43-197): as the sequence (P04070 43-197, chain 1 of 2) above

For EPCR (from UniProt Q9UNN8), the Kd (Protein C (Homo sapiens)) is listed as 60 nM and the Kd [1] is listed as 60 nM.
